Assay results taken from the RNAGym collection of RNA variant scans (doi:10.7554/elife.80360).

B1: HDV Ribozyme (parent)
chain: GGCCGGCAUGGUCCCAGCCUCCUCGCUGGCGCCGGCUGGGCAACAUUCCGAGGGGACCGUCCCCUCGGUAAUGGCGAAUGGGACCCA

Variants of: B1
Test: self-cleavage, relative activity (ratio to wild type); higher = more cleavage; co-transcriptional

Variant | self-cleavage
G39C U60G | 0.185
U12G U69G | 0.831
C33U A56G | 0.665
C41G C49A | 0.489
U72G C75U | 0.0415
A16C C62A | 0.917
A70U A87G | 1.02
G1C G50U | 0.231
G2U C22U | 0.032
C41A C62U | 0.869
A16G C41G | 0.623
A16G C33G | 0.19
U12G A56G | 0.767
G2A U12C | 0.0627
C24G G50U | 0.149
C32U C63A | 0.701
U20A C63U | 0.101
G1C A51G | 0.396
C49A G76U | 1.01
G2A G28A | 0.0107
A8G U46C | 0.782
C26G C44A | 0.554
C3A A56G | 0.632
G11C C64A | 0.629

Variant | self-cleavage
U27G C85G | 1.29
A71G C84U | 0.831
G53U C63U | 0.895
C7G A51U | 0.107
U9C G28C | 0.0573
C19G G74C | 0.0665
C22G G53C | 0
G6C U37G | 0.0923
U65C U69G | 1.03
C24U G38U | 0.115
U46C G67C | 0.469
G6U C62U | 1
G25A C26U | 0.339
C64A U72G | 0.856
U60A A87G | 0.823
C19U C32U | 0.295
C58G C75U | 0.122
G10C A83C | 0.0615
G5U C26U | 0.864
A16G U69G | 0.962
C64G G80U | 0.443
C32A G39U | 0.237
U20A G54C | 0.196
C4A G50U | 0.372

Variant | self-cleavage
C57U U65C | 0.895
C7G C85U | 0.32
C44G A56C | 0.745
G2C C48A | 0
U46A A87G | 0.712
C44G G59C | 0.95
G10A C41U | 0.607
G17C C48A | 0.388
C48A C61G | 1.03
A51C G67U | 0.939
C15A C33G | 0
A71C A87G | 0.993
C15A A51U | 0.573
U23G G81C | 0.166
C19G A42U | 0
C14G G53A | 0.86
C15U G59C | 1.13
C30U G82C | 0.102
G68A A83U | 0.424
U9C G74A | 0.653
G25A G31U | 0.0536
C26U A71C | 0.748
C30U A42U | 0.0615
U12G C18A | 0.151

Variant | self-cleavage
G17C C18U | 0.0923
G35A C36G | 0.35
U27C C85U | 1.04
G34U C86A | 0.325
C19G U72C | 0.101
G59C G73C | 0.575
A16G G25C | 0.166
G6C C75G | 0.0536
C26U A83C | 0.95
G34A G80C | 0.0819
C26A A71U | 0.785
U60A U69A | 0.793
A56C G76U | 1.19
U79G C85G | 0.575
U69G G81U | 0.374
C30A G38C | 0.203
U60C C61G | 0.751
C22G A70U | 0.173
G2U C63U | 0.0545
G38U C58A | 0.164
C48A G55U | 0.933
C19U C24U | 0.101
A56C C61G | 1.05
C14G G82A | 0.158

Variant | self-cleavage
C14G G82U | 0.196
G35C C86U | 0.415
U37A G80A | 0.145
G1U G38A | 0.422
A51G U60A | 0.852
C13G G35A | 0.0449
U23A C44G | 0.594
A70U A77U | 0.35
G40U C44U | 0.143
G50A G53U | 0.727
G6U A78U | 0.107
G1U C4A | 0.277
G5U A8U | 0.208
C24G U65A | 0.208
C4U C58G | 0.615
C21A A71G | 0.0573
G54A A87G | 0.877
U12G G39A | 0.403
C63G G67U | 0.293
C21A C44G | 0.0852
G54A C66A | 0.634
U65G U79G | 1.2
C4U U46C | 0.403
G40A U47G | 0.831

Variant | self-cleavage
C13G G50C | 0.0594
U20A G74U | 0.0437
U23G C84G | 0.388
G28C C57G | 0.115
A45C G50A | 0.785
G68U A71G | 1.04
C22U A83G | 0.12
U46G C85A | 0.831
C21G A51G | 0.131
U20G G80C | 0.0519
C13G U47A | 0
C7G C49A | 0.145
C15U G50U | 0.991
G74A A83C | 0.232
G40A A83U | 0.251
G53C G81A | 0.369
U23G G40C | 0.135
G2C A70U | 0.0601
U20C G81A | 0
C61A G80U | 0.203
U20A C58G | 0.158
G54A U69G | 0.882
C14U U46C | 1.03
C24G U72C | 0.111

Variant | self-cleavage
U9A G28C | 0
G29U A51U | 0.169
C18U A42U | 0.0627
U20A A77C | 0.151
C30A G39A | 0.0489
G34C G81U | 0.0639
U60C G80A | 0.386
C66G G76C | 0.73
G1U C49U | 0.391
G6C G34U | 0
A8G G81A | 0.0875
C36G G50A | 0.109
C4U C14A | 0.519
G52C G67A | 0.62
C3G G29C | 0.0396
C24G A71G | 0.102
C24U A51G | 0.415
U47A C49G | 1.42
C21A C30U | 0.0519
G5U C62A | 0.369
G1A C30U | 0.0554
G55U G76U | 0.993
C49G C85A | 0.789
